T1: Heat shock transcription factor 1 (Hsf1), wildtype (human), Q00613
T1 chain: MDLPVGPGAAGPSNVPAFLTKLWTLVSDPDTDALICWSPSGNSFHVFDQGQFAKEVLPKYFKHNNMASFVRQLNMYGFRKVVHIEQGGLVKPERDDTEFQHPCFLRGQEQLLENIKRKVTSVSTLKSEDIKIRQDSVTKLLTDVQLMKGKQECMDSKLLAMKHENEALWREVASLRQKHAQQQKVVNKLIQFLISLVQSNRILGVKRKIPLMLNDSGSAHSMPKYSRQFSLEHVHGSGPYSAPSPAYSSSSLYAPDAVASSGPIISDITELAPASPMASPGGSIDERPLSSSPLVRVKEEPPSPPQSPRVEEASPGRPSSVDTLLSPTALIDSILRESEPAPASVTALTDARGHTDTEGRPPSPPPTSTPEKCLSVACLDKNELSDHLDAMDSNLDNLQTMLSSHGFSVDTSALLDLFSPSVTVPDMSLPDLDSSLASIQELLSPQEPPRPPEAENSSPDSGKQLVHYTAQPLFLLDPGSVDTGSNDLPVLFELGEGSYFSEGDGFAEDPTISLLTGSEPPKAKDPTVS


How the values were obtained:
[1] = target: T1, Heat shock transcription factor 1 …; test: native gel or EMSA; Blue native PAGE (8% gel, on ice) of monomeric Hsf1 and of Hsf1 monomers heat shocked at 42 °C for 10 min; samples taken at 0 and 3 h of incubation at 25 °C (Figure S1); conditions: remark: other sources report otherwise
[2] = target: the molecule itself; test: as above

| Binder | stoichiometry N [1] | stoichiometry N [2] |
| --- | --- | --- |
| Heat shock transcription factor 1 (Hsf1), wildtype, Q00613 1-529 (natural protein) MDLPVGPGAAGPSNVPAFLTKLWTLVSDPDTDALICWSPSGNSFHVFDQGQFAKEVLPKYFKHNNMASFVRQLNMYGFRKVVHIEQGGLVKPERDDTEFQHPCFLRGQEQLLENIKRKVTSVSTLKSEDIKIRQDSVTKLLTDVQLMKGKQECMDSKLLAMKHENEALWREVASLRQKHAQQQKVVNKLIQFLISLVQSNRILGVKRKIPLMLNDSGSAHSMPKYSRQFSLEHVHGSGPYSAPSPAYSSSSLYAPDAVASSGPIISDITELAPASPMASPGGSIDERPLSSSPLVRVKEEPPSPPQSPRVEEASPGRPSSVDTLLSPTALIDSILRESEPAPASVTALTDARGHTDTEGRPPSPPPTSTPEKCLSVACLDKNELSDHLDAMDSNLDNLQTMLSSHGFSVDTSALLDLFSPSVTVPDMSLPDLDSSLASIQELLSPQEPPRPPEAENSSPDSGKQLVHYTAQPLFLLDPGSVDTGSNDLPVLFELGEGSYFSEGDGFAEDPTISLLTGSEPPKAKDPTVS | 3 |  |
| Hsf1–K298R,S303E,S307E (natural protein, human, UniProt Q00613 1-529, looked up, Heat shock transcription factor 1 (Hsf1), human, full length, K298R in the S303E,S307E variant; also called REE; EE,K298R; source: E. coli BL21(DE3) Rosetta, purified (Ni-IDA, tag cleaved with tobacco etch virus protease, SEC)) MDLPVGPGAAGPSNVPAFLTKLWTLVSDPDTDALICWSPSGNSFHVFDQGQFAKEVLPKYFKHNNMASFVRQLNMYGFRKVVHIEQGGLVKPERDDTEFQHPCFLRGQEQLLENIKRKVTSVSTLKSEDIKIRQDSVTKLLTDVQLMKGKQECMDSKLLAMKHENEALWREVASLRQKHAQQQKVVNKLIQFLISLVQSNRILGVKRKIPLMLNDSGSAHSMPKYSRQFSLEHVHGSGPYSAPSPAYSSSSLYAPDAVASSGPIISDITELAPASPMASPGGSIDERPLSSSPLVRVREEPPEPPQEPRVEEASPGRPSSVDTLLSPTALIDSILRESEPAPASVTALTDARGHTDTEGRPPSPPPTSTPEKCLSVACLDKNELSDHLDAMDSNLDNLQTMLSSHGFSVDTSALLDLFSPSVTVPDMSLPDLDSSLASIQELLSPQEPPRPPEAENSSPDSGKQLVHYTAQPLFLLDPGSVDTGSNDLPVLFELGEGSYFSEGDGFAEDPTISLLTGSEPPKAKDPTVS |  | 3 |
| Hsf1–S303E,S307E (double phosphomimetic variant) (natural protein, human, UniProt Q00613 1-529, looked up, Heat shock transcription factor 1 (Hsf1), human, full length, phosphomimetic S303E,S307E; theoretical mass 57,270.43 Da; also called EE; source: E. coli BL21(DE3) Rosetta, purified (Ni-IDA, tag cleaved with tobacco etch virus protease, SEC; monomeric and trimeric fractions)) MDLPVGPGAAGPSNVPAFLTKLWTLVSDPDTDALICWSPSGNSFHVFDQGQFAKEVLPKYFKHNNMASFVRQLNMYGFRKVVHIEQGGLVKPERDDTEFQHPCFLRGQEQLLENIKRKVTSVSTLKSEDIKIRQDSVTKLLTDVQLMKGKQECMDSKLLAMKHENEALWREVASLRQKHAQQQKVVNKLIQFLISLVQSNRILGVKRKIPLMLNDSGSAHSMPKYSRQFSLEHVHGSGPYSAPSPAYSSSSLYAPDAVASSGPIISDITELAPASPMASPGGSIDERPLSSSPLVRVKEEPPEPPQEPRVEEASPGRPSSVDTLLSPTALIDSILRESEPAPASVTALTDARGHTDTEGRPPSPPPTSTPEKCLSVACLDKNELSDHLDAMDSNLDNLQTMLSSHGFSVDTSALLDLFSPSVTVPDMSLPDLDSSLASIQELLSPQEPPRPPEAENSSPDSGKQLVHYTAQPLFLLDPGSVDTGSNDLPVLFELGEGSYFSEGDGFAEDPTISLLTGSEPPKAKDPTVS |  | 3 |

Source: PMC7949154, “Heat shock transcription factor 1 is SUMOylated in the activated trimeric state” (The Journal of Biological Chemistry, 2020)
